Results taken from patent US20220048993A1 (published 2022).
Values belong to the binder of their own block, whether it stands above or below them.

How the values were obtained:
[1] = target: 7D8.RbIgG; assay: SPR; 25 °C
[2] = target: T1, human FcRH3 (BIACORE analyte) (human, UniProt Q96P31 18-573); assay: SPR (1:1 binding); 25 °C
T1 chain: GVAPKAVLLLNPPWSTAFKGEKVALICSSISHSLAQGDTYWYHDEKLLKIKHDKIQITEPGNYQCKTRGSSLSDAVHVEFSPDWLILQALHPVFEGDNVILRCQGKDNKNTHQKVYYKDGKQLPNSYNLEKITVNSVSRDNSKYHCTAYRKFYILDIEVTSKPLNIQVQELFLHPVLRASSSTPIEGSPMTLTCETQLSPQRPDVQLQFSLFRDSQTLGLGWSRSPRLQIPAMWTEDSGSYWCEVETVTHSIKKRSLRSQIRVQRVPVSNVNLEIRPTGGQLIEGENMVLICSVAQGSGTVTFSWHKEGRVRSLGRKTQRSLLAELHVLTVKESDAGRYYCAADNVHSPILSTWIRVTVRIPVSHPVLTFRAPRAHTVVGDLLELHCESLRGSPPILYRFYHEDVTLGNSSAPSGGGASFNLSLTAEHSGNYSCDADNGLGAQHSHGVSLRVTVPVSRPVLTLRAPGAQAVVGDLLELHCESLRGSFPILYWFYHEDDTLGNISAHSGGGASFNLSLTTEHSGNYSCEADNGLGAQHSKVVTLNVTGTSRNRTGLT

[3] = target: T2, soluble human FcRH5 protein fragment (UniProt Q96RD9 16-851); assay: SPR
T2 chain: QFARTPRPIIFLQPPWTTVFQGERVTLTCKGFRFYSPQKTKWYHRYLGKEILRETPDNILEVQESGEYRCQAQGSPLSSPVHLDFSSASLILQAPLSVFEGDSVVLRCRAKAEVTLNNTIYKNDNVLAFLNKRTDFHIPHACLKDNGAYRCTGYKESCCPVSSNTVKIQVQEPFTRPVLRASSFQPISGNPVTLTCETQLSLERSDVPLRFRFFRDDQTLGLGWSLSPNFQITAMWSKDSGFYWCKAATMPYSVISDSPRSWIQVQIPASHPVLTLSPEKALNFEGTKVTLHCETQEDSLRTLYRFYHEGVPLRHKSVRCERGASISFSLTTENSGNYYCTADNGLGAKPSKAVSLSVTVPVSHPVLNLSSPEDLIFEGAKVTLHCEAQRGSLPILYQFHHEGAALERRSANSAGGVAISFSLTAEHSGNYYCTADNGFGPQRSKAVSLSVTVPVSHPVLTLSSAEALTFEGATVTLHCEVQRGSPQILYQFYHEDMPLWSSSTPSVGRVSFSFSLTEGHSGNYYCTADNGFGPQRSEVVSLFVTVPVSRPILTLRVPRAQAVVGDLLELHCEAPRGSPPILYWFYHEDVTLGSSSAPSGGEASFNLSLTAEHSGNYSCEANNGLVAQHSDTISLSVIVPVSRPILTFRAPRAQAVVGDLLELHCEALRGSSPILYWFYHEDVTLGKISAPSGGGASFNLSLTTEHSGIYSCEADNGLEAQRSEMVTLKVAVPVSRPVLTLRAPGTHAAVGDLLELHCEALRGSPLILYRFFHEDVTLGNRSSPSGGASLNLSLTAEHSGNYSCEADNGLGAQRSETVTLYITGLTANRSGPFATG

[4] = target: T3, soluble cynomolgus FcRH5 protein fragment; assay: SPR; 25 °C
T3 chain: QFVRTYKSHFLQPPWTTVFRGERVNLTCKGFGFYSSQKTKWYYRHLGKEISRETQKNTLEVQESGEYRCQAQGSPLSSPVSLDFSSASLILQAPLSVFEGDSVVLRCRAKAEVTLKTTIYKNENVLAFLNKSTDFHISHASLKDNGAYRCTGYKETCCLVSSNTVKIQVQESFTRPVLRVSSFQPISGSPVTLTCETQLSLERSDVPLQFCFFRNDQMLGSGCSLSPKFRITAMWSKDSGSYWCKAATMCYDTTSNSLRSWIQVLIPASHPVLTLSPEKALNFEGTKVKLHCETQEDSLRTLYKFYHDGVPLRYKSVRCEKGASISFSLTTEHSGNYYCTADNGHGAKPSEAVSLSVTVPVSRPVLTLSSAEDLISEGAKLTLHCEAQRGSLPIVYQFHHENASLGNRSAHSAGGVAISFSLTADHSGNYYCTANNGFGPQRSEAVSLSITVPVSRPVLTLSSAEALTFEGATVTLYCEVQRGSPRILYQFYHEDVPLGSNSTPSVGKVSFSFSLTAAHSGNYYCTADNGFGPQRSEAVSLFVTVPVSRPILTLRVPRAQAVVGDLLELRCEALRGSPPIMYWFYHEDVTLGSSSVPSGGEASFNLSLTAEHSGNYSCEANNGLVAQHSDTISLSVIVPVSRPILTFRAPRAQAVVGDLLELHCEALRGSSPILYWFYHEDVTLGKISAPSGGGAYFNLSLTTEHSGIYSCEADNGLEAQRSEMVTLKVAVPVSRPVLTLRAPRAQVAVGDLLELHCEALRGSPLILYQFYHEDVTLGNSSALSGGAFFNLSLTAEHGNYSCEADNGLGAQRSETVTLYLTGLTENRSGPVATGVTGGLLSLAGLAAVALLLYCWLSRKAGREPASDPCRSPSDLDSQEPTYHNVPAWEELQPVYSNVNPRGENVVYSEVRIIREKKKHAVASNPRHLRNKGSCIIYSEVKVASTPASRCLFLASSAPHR

[5] = target: T2, soluble human FcRH5 protein fragment; assay: SPR; 25 °C

B3: hu1G7.v93/38E4.v1 TDB (bispecific antibody, V domains shown)
VH 1: EVQLVESGPGLVKPSETLSLTCTVSGFSTTRFGVHWVRQPPGKGLEWLGVIWRGGSTDYNAAFVSRLTISKDNSKNQVSLKLSSVTAADTAVYYCSNHYYGSPDYALDNWGQGTLVTVSS
VL 1: DIQMTQSPSSLSASVGDRVTITCKASQDVSNLVVWFQQKPGKAPKLLIYSGSYRYSGVPSRFSGSGSGTDFTLTISSLQPEDFATYYCQQHYSPPYTFGQGTKVEIK
VH 2: EVQLVQSGAEVKKPGASVKVSCKASGFTFTSYYIHWVRQAPGQGLEWIGWIYPENDNTKYNEKFKDRVTITADTSTSTAYLELSSLRSEDTAVYYCARDGYSRYYFDYWGQGTLVTVSS
VL 2: DIVMTQSPDSLAVSLGERATINCKSSQSLLNSRTRKNYLAWYQQKPGQSPKLLIYWTSTRKSGVPDRFSGSGSGTDFTLTISSLQAEDVAVYYCKQSFILRTFGQGTKVEIK
- Kd [3]: 1.07 nM

B5: h7D8.L1H2 (antibody)
chain 1: EVQLVESGGGLVQPGGSLRLSCAVSGIDLSSYAMGWVRQAPGKGLEWIGTIGTGGTPYYASWAKGRFTISKDSSKNTVYLQMNSLRAEDTAVYFCARDMYTGSIYYDMWGQGTLVTVSS
chain 2: DAQLTQSPSSLSASVGDRVTITCQSSQSVFNNAQLSWYQQKPGKPPKLLIYDTSNLASGVPSRFSGSGSGTDFTLTISSLQPEDFATYYCLGAYTDDADNAFGQGTKVEIK
- Kd [4]: 4.97 nM
- Kd [5]: 1.26 nM

The next lines start with the values.

- Kd [1]: 1.89 nM
B1: Cyno FcRH5 (receptor)
chain: QFVRTYKSHFLQPPWTTVFRGERVNLTCKGFGFYSSQKTKWYYRHLGKEISRETQKNTLEVQESGEYRCQAQGSPLSSPVSLDFSSASLILQAPLSVFEGDSVVLRCRAKAEVTLKTTIYKNENVLAFLNKSTDFHISHASLKDNGAYRCTGYKETCCLVSSNTVKIQVQESFTRPVLRVSSFQPISGSPVTLTCETQLSLERSDVPLQFCFFRNDQMLGSGCSLSPKFRITAMWSKDSGSYWCKAATMCYDTTSNSLRSWIQVLIPASHPVLTLSPEKALNFEGTKVKLHCETQEDSLRTLYKFYHDGVPLRYKSVRCEKGASISFSLTTEHSGNYYCTADNGHGAKPSEAVSLSVTVPVSRPVLTLSSAEDLISEGAKLTLHCEAQRGSLPIVYQFHHENASLGNRSAHSAGGVAISFSLTADHSGNYYCTANNGFGPQRSEAVSLSITVPVSRPVLTLSSAEALTFEGATVTLYCEVQRGSPRILYQFYHEDVPLGSNSTPSVGKVSFSFSLTAAHSGNYYCTADNGFGPQRSEAVSLFVTVPVSRPILTLRVPRAQAVVGDLLELRCEALRGSPPIMYWFYHEDVTLGSSSVPSGGEASFNLSLTAEHSGNYSCEANNGLVAQHSDTISLSVIVPVSRPILTFRAPRAQAVVGDLLELHCEALRGSSPILYWFYHEDVTLGKISAPSGGGAYFNLSLTTEHSGIYSCEADNGLEAQRSEMVTLKVAVPVSRPVLTLRAPRAQVAVGDLLELHCEALRGSPLILYQFYHEDVTLGNSSALSGGAFFNLSLTAEHGNYSCEADNGLGAQRSETVTLYLTGLTENRSGPVATGVTGGLLSLAGLAAVALLLYCWLSRKAGREPASDPCRSPSDLDSQEPTYHNVPAWEELQPVYSNVNPRGENVVYSEVRIIREKKKHAVASNPRHLRNKGSCIIYSEVKVASTPASRCLFLASSAPHR

- Kd [2]: 76.5 nM
B2: 1G7.v1.4/38E4.v1 TDB (bispecific antibody, V domains shown)
VH 1: EVQLVESGPGLVKPSETLSLTCTVSGFSLTRFGVHWVRQPPGKGLEWLGVIWRGGSTDYNAAFMSRLTISKDNSKNQVSLKLSSVTAADTAVYYCSNHYYGSSDYALDNWGQGTLVTVSS
VL 1: DIQMTQSPSSLSASVGDRVTITCKASQDVRNLVVWFQQKPGKAPKLLIYSGSYRYSGVPSRFSGSGSGTDFTLTISSLQPEDFATYYCQQHYSPPYTFGQGTKVEIK
VH 2: EVQLVQSGAEVKKPGASVKVSCKASGFTFTSYYIHWVRQAPGQGLEWIGWIYPENDNTKYNEKFKDRVTITADTSTSTAYLELSSLRSEDTAVYYCARDGYSRYYFDYWGQGTLVTVSS
VL 2: DIVMTQSPDSLAVSLGERATINCKSSQSLLNSRTRKNYLAWYQQKPGQSPKLLIYWTSTRKSGVPDRFSGSGSGTDFTLTISSLQAEDVAVYYCKQSFILRTFGQGTKVEIK

- Kd [1]: 0.403 nM
B4: Human FcRH5 (receptor)
chain: QFARTPRPIIFLQPPWTTVFQGERVTLTCKGFRFYSPQKTKWYHRYLGKEILRETPDNILEVQESGEYRCQAQGSPLSSPVHLDFSSASLILQAPLSVFEGDSVVLRCRAKAEVTLNNTIYKNDNVLAFLNKRTDFHIPHACLKDNGAYRCTGYKESCCPVSSNTVKIQVQEPFTRPVLRASSFQPISGNPVTLTCETQLSLERSDVPLRFRFFRDDQTLGLGWSLSPNFQITAMWSKDSGFYWCKAATMPYSVISDSPRSWIQVQIPASHPVLTLSPEKALNFEGTKVTLHCETQEDSLRTLYRFYHEGVPLRHKSVRCERGASISFSLTTENSGNYYCTADNGLGAKPSKAVSLSVTVPVSHPVLNLSSPEDLIFEGAKVTLHCEAQRGSLPILYQFHHEGAALERRSANSAGGVAISFSLTAEHSGNYYCTADNGFGPQRSKAVSLSVTVPVSHPVLTLSSAEALTFEGATVTLHCEVQRGSPQILYQFYHEDMPLWSSSTPSVGRVSFSFSLTEGHSGNYYCTADNGFGPQRSEVVSLFVTVPVSRPILTLRVPRAQAVVGDLLELHCEAPRGSPPILYWFYHEDVTLGSSSAPSGGEASFNLSLTAEHSGNYSCEANNGLVAQHSDTISLSVIVPVSRPILTFRAPRAQAVVGDLLELHCEALRGSSPILYWFYHEDVTLGKISAPSGGGASFNLSLTTEHSGIYSCEADNGLEAQRSEMVTLKVAVPVSRPVLTLRAPGTHAAVGDLLELHCEALRGSPLILYRFFHEDVTLGNRSSPSGGASLNLSLTAEHSGNYSCEADNGLGAQRSETVTLYITGLTANRSGPFATG
